Assay [1] concerns the target sDR5 protein (extracellular domain of TRAIL receptor DR5, residues 1-130) (human). Put plainly: cell-based or functional assay.
The target is the same in assay [2]. The experiment in a line: SPR, BIAcore 2000, sDR5 immobilised. A general note: SPR reads the build-up and loss of mass on a sensor chip optically.
The target is the same in assay [3]. Put plainly: SPR, BIAcore 2000, sDR5 amine-coupled to chip, TRAIL 300-900 nM as analyte, 1:1 model, 25° C., apparent KD.

Turning to “TRAIL deletion mutant protein containing the deletion of residues 132-135 in the AA″ loop (ligand)”, the cytotoxic activity on human SK-HEP-1 hepatoma cells (MTT viability, concentration giving 50% cell death) in assay [1] was more than 1000 ng/mL. In addition, the fold change of apparent KD against wild-type TRAIL in assay [2] was 18 fold. Further, the Kd in assay [3] worked out at 294 nM.

As to “wild-type TRAIL protein (human, residues 114-281) (ligand)”, the cytotoxic activity on human SK-HEP-1 hepatoma cells (MTT viability, concentration giving 50% reduction of viability) in assay [1] came out at 50 ng/mL. Besides, the Kd in assay [3] is 15.9 nM.

The values above are taken from patent US20040146968A1.
